Values joined by “and” are separate entries in the source; they are usually repeats but may differ in a detail not shown here. Equal entries are not always repeated.
Experiments:
[1] = biological target: PKM2 (mouse (endogenous in ImKCs)) (UniProt P52480); assay: cross-linking; DSS crosslinking followed by Western blotting, after DPI treatment; also with the ERK1/2 inhibitor SCH772984
[2] = biological target: PKM2 (mouse (endogenous in ImKCs)) (UniProt P52480); assay: native gel or EMSA; ImKCs treated with vehicle or DPI (50 and 500 nM) for 1 h (also 6 and 12 h); proteins extracted in Native PAGE sample buffer with 1% digitonin, run on native PAGE, anti-PKM2 Western blotting

PKM2, P52480-1 1-531 (enzyme; other documents disagree on this pair), sequence (P52480 whole entry): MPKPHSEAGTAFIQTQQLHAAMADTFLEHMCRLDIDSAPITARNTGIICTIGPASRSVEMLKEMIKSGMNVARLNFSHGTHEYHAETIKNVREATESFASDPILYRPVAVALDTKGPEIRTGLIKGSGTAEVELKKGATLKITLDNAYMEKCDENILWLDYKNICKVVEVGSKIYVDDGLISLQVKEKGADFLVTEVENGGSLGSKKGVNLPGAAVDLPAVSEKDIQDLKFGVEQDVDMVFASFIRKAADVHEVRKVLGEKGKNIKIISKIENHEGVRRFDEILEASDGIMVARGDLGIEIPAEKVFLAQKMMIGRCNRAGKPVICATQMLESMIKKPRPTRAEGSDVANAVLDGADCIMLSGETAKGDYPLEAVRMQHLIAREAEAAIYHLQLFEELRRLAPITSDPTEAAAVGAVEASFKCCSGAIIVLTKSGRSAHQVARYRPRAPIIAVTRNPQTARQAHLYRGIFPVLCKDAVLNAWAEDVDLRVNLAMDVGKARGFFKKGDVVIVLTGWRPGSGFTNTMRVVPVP

## PKM2, P52480-1 1-531 (enzyme; other documents disagree on this pair)
[1]
  stoichiometry N: 2
[2]
  stoichiometry N: 2 and 4
